Measurements taken from patent publication US20260217793A1 (Chugai, published 2026).

How the values were obtained:
Experiment in all cases: SPR
[1] = target: T1, human FcγRIIb extracellular domain with C-terminal His tag (human, UniProt P31994 43-217)
T1 sequence (looked up): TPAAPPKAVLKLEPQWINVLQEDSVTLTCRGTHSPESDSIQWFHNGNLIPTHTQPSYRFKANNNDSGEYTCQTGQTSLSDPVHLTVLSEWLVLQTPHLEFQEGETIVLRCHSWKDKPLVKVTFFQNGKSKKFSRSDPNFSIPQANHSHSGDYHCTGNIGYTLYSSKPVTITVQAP

[2] = target: T2, human FcγRIIa type R (Arg131) extracellular domain with C-terminal His tag (human, UniProt P12318 34-217)
T2 sequence (looked up): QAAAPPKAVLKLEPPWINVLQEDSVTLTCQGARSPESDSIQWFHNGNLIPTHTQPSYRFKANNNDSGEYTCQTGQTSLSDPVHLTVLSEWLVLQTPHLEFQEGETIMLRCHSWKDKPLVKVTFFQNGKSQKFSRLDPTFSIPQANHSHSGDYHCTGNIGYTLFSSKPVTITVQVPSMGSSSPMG

[3] = target: human FcγRIIIa type V (Val158) extracellular domain with C-terminal His tag (human, UniProt P08637 17-208)
human FcγRIIIa type V (Val158) extracellular domain with C-terminal His tag, sequence (P08637 17-208 F176V): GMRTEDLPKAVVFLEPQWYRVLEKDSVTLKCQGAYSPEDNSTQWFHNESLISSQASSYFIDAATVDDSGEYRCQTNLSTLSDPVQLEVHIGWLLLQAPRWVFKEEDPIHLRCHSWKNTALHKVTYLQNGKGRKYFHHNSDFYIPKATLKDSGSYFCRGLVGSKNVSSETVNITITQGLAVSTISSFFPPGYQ

Binder | KD (IIb) of parent polypeptide/KD (IIb) of altered polypeptide [1] | KD (IIaR) of parent polypeptide/KD (IIaR) of altered polypeptide [2] | Kd [3] [µM]
IL6R-BP502/IL6R-L (antibody, human IgG1, kappa) heavy: QVQLQESGPGLVKPSETLSLTCAVSGHSISHDHAWSWVRQPPGEGLEWIGFISYSGITNYNPSLQGRVTISRDNSKNTLYLQMNSLRAEDTAVYYCARSLARTTAMDYWGEGTLVTVSSASTKGPSVFPLAPSSKSTSGGTAALGCLVKDYFPEPVTVSWNSGALTSGVHTFPAVLQSSGLYSLSSVVTVPSSSLGTQTYICNVNHKPSNTKVDKKVEPKSCDKTHTCPPCPAPDLLGDDSVFLFPPKPKDTLMISRTPEVTCVVIDVAEEDGEVKFNWYVDGVEVHNAKTKPREEQDNSTYRVVSVLTVLHQDWLNGKEYKCKVSNKGLPRPIEKTISKAKGQPREPQVYTLPPSRDELTKNQVSLTCLVKGFYPSDIAVEWESNGQPENNYKTTPPVLDSDGSFFLYSKLTVDKSRWQQGNVFSCSVMHEALHNHYTQESLSLSP light: not shown | 840 | 10.1 | 
IL6R-BP538/IL6R-L (antibody, human IgG1, kappa) heavy: QVQLQESGPGLVKPSETLSLTCAVSGHSISHDHAWSWVRQPPGEGLEWIGFISYSGITNYNPSLQGRVTISRDNSKNTLYLQMNSLRAEDTAVYYCARSLARTTAMDYWGEGTLVTVSSASTKGPSVFPLAPSSKSTSGGTAALGCLVKDYFPEPVTVSWNSGALTSGVHTFPAVLQSSGLYSLSSVVTVPSSSLGTQTYICNVNHKPSNTKVDKKVEPKSCDKTHTCPPCPAPELLGDDSVFLFPPKPKDTLMISRTPEVTCVVIDVSEEDGEVKFNWYVDGVEVHNAKTKPREEQYNSTYRVVSVLTVLHQDWLNGKEYKCKVSNKALPRPIEKTISKAKGQPREPQVYTLPPSRDELTKNQVSLTCLVKGFYPSDIAVEWESNGQPENNYKTTPPVLDSDGSFFLYSKLTVDKSRWQQGNVFSCSVMHEALHNHYTQESLSLSP light: not shown | 587 | 5.4 | 33
IL6R-BP536/IL6R-L (antibody, human IgG1, kappa) heavy: QVQLQESGPGLVKPSETLSLTCAVSGHSISHDHAWSWVRQPPGEGLEWIGFISYSGITNYNPSLQGRVTISRDNSKNTLYLQMNSLRAEDTAVYYCARSLARTTAMDYWGEGTLVTVSSASTKGPSVFPLAPSSKSTSGGTAALGCLVKDYFPEPVTVSWNSGALTSGVHTFPAVLQSSGLYSLSSVVTVPSSSLGTQTYICNVNHKPSNTKVDKKVEPKSCDKTHTCPPCPAPDLLGDDSVFLFPPKPKDTLMISRTPEVTCVVIDVSEEDGEVKFNWYVDGVEVHNAKTKPREEQDNSTYRVVSVLTVLHQDWLNGKEYKCKVSNKGLPRPIEKTISKAKGQPREPQVYTLPPSRDELTKNQVSLTCLVKGFYPSDIAVEWESNGQPENNYKTTPMVLDSDGSFFLYSKLTVDKSRWQQGNVFSCSVMHEALHNHYTQESLSLSP light: not shown | 1040 | 13.9 | 23
IL6R-BP540/IL6R-L (antibody, human IgG1, kappa) heavy: QVQLQESGPGLVKPSETLSLTCAVSGHSISHDHAWSWVRQPPGEGLEWIGFISYSGITNYNPSLQGRVTISRDNSKNTLYLQMNSLRAEDTAVYYCARSLARTTAMDYWGEGTLVTVSSASTKGPSVFPLAPSSKSTSGGTAALGCLVKDYFPEPVTVSWNSGALTSGVHTFPAVLQSSGLYSLSSVVTVPSSSLGTQTYICNVNHKPSNTKVDKKVEPKSCDKTHTCPPCPAPELLGDDSVFLFPPKPKDTLMISRTPEVTCVVIDVSEEDGPVKFNWYVDGVEVHNAKTKPREEQDNSTYRVVSVLTVLHQDWLNGKEYKCKVSNKALPRPIEKTISKAKGQPREPQVYTLPPSRDELTKNQVSLTCLVKGFYPSDIAVEWESNGQPENNYKTTPPVLDSDGSFFLYSKLTVDKSRWQQGNVFSCSVMHEALHNHYTQESLSLSP light: not shown | 541 | 5.2 | 39
IL6R-BP503/IL6R-L (antibody, human IgG1, kappa) heavy: QVQLQESGPGLVKPSETLSLTCAVSGHSISHDHAWSWVRQPPGEGLEWIGFISYSGITNYNPSLQGRVTISRDNSKNTLYLQMNSLRAEDTAVYYCARSLARTTAMDYWGEGTLVTVSSASTKGPSVFPLAPSSKSTSGGTAALGCLVKDYFPEPVTVSWNSGALTSGVHTFPAVLQSSGLYSLSSVVTVPSSSLGTQTYICNVNHKPSNTKVDKKVEPKSCDKTHTCPPCPAPDLLGDDSVFLFPPKPKDTLMISRTPEVTCVVIDVAEEDGEVKFNWYVDGVEVHNAKTKPREEQDNSTYRVVSVLTVLHQDWLNGKEYKCKVSNKGLPRPIEKTISKAKGQPREPQVYTLPPSRDELTKNQVSLTCLVKGFYPSDIAVEWESNGQPENNYKTTPMVLDSDGSFFLYSKLTVDKSRWQQGNVFSCSVMHEALHNHYTQESLSLSP light: not shown | 1810 | 19.4 | 
IL6R-BP509/IL6R-L (antibody, human IgG1, kappa) heavy: QVQLQESGPGLVKPSETLSLTCAVSGHSISHDHAWSWVRQPPGEGLEWIGFISYSGITNYNPSLQGRVTISRDNSKNTLYLQMNSLRAEDTAVYYCARSLARTTAMDYWGEGTLVTVSSASTKGPSVFPLAPSSKSTSGGTAALGCLVKDYFPEPVTVSWNSGALTSGVHTFPAVLQSSGLYSLSSVVTVPSSSLGTQTYICNVNHKPSNTKVDKKVEPKSCDKTHTCPPCPAPDLLGDDSVFLFPPKPKDTLMISRTPEVTCVVIDVAEEDGDVKFNWYVDGVEVHNAKTKPREEQDNSTYRVVSVLTVLHQDWLNGKEYKCKVSNKALPAPIEKTISKAKGQPREPQVYTLPPSRDELTKNQVSLTCLVKGFYPSDIAVEWESNGQPENNYKTTPPVLDSDGSFFLYSKLTVDKSRWQQGNVFSCSVMHEALHNHYTQESLSLSP light: not shown | 174 | 2.1 | 
IL6R-BP508/IL6R-L (antibody, human IgG1, kappa) heavy: QVQLQESGPGLVKPSETLSLTCAVSGHSISHDHAWSWVRQPPGEGLEWIGFISYSGITNYNPSLQGRVTISRDNSKNTLYLQMNSLRAEDTAVYYCARSLARTTAMDYWGEGTLVTVSSASTKGPSVFPLAPSSKSTSGGTAALGCLVKDYFPEPVTVSWNSGALTSGVHTFPAVLQSSGLYSLSSVVTVPSSSLGTQTYICNVNHKPSNTKVDKKVEPKSCDKTHTCPPCPAPDLLGDDSVFLFPPKPKDTLMISRTPEVTCVVIDVAEEDGPVKFNWYVDGVEVHNAKTKPREEQDNSTYRVVSVLTVLHQDWLNGKEYKCKVSNKALPAPIEKTISKAKGQPREPQVYTLPPSRDELTKNQVSLTCLVKGFYPSDIAVEWESNGQPENNYKTTPPVLDSDGSFFLYSKLTVDKSRWQQGNVFSCSVMHEALHNHYTQESLSLSP light: not shown | 149 | 2 | 
IL6R-BP511/IL6R-L (antibody, human IgG1, kappa) heavy: QVQLQESGPGLVKPSETLSLTCAVSGHSISHDHAWSWVRQPPGEGLEWIGFISYSGITNYNPSLQGRVTISRDNSKNTLYLQMNSLRAEDTAVYYCARSLARTTAMDYWGEGTLVTVSSASTKGPSVFPLAPSSKSTSGGTAALGCLVKDYFPEPVTVSWNSGALTSGVHTFPAVLQSSGLYSLSSVVTVPSSSLGTQTYICNVNHKPSNTKVDKKVEPKSCDKTHTCPPCPAPELLGDDSVFLFPPKPKDTLMISRTPEVTCVVIDVAEEDGPVKFNWYVDGVEVHNAKTKPREEQDNSTYRVVSVLTVLHQDWLNGKEYKCKVSNKALPRPIEKTISKAKGQPREPQVYTLPPSRDELTKNQVSLTCLVKGFYPSDIAVEWESNGQPENNYKTTPPVLDSDGSFFLYSKLTVDKSRWQQGNVFSCSVMHEALHNHYTQESLSLSP light: not shown | 891 | 6.3 | 
IL6R-BP505/IL6R-L (antibody, human IgG1, kappa) heavy: QVQLQESGPGLVKPSETLSLTCAVSGHSISHDHAWSWVRQPPGEGLEWIGFISYSGITNYNPSLQGRVTISRDNSKNTLYLQMNSLRAEDTAVYYCARSLARTTAMDYWGEGTLVTVSSASTKGPSVFPLAPSSKSTSGGTAALGCLVKDYFPEPVTVSWNSGALTSGVHTFPAVLQSSGLYSLSSVVTVPSSSLGTQTYICNVNHKPSNTKVDKKVEPKSCDKTHTCPPCPAPDLLGDDSVFLFPPKPKDTLMISRTPEVTCVVIDVAEEDGDVKFNWYVDGVEVHNAKTKPREEQYNSTYRVVSVLTVLHQDWLNGKEYKCKVSNKALPAPIEKTISKAKGQPREPQVYTLPPSRDELTKNQVSLTCLVKGFYPSDIAVEWESNGQPENNYKTTPPVLDSDGSFFLYSKLTVDKSRWQQGNVFSCSVMHEALHNHYTQESLSLSP light: not shown | 145 | 2.6 | 
IL6R-BP504/IL6R-L (antibody, human IgG1, kappa) heavy: QVQLQESGPGLVKPSETLSLTCAVSGHSISHDHAWSWVRQPPGEGLEWIGFISYSGITNYNPSLQGRVTISRDNSKNTLYLQMNSLRAEDTAVYYCARSLARTTAMDYWGEGTLVTVSSASTKGPSVFPLAPSSKSTSGGTAALGCLVKDYFPEPVTVSWNSGALTSGVHTFPAVLQSSGLYSLSSVVTVPSSSLGTQTYICNVNHKPSNTKVDKKVEPKSCDKTHTCPPCPAPDLLGDDSVFLFPPKPKDTLMISRTPEVTCVVIDVAEEDGPVKFNWYVDGVEVHNAKTKPREEQYNSTYRVVSVLTVLHQDWLNGKEYKCKVSNKALPAPIEKTISKAKGQPREPQVYTLPPSRDELTKNQVSLTCLVKGFYPSDIAVEWESNGQPENNYKTTPPVLDSDGSFFLYSKLTVDKSRWQQGNVFSCSVMHEALHNHYTQESLSLSP light: not shown | 128 | 2.4 | 
